Assay results from the nanobody polyreactivity screen of Harvey et al. (2022).

test: yeast display, Sf9 membrane polyspecificity reagent, FACS + sequencing; frameworks hold sequencing errors
In short: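 After 36–48 hours of galactose induction, yeast (Saccharomyces cerevisiae BJ5465) displaying a synthetic nanobody library were stained at 4 °C for 1 hour with 10% biotinylated, detergent-solubilized Sf9 membrane reagent. Streptavidin microbeads enriched the stained cells before FACS sorting into low and high (top ~1%) gates on anti-HA and streptavidin fluorescence. Each clone's polyreactivity label reflects its gate of origin.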

Row | Sequence | polyreactivity (PSR sort gate)
1 | QVQLVESGGGLVQAGGSLRLSCAASGRTFERNTMRWYRQAPGKERELVAAISYDGGSTYYADSVKGRFTISRDNAKNTVYFQLNSLKPEDRAVYYCNAGGSEIYRSPFDYWGQGTQVTVSS | low polyreactivity
2 | QVQLVESGGGLVQAGGSLRLSCAASGRTFEYYAMGWYRQAPGKERELVAGISWSGGSTYYADSVKGRFTISRDNAKNTVYLQMNSLKPEDTAVYYCNARYLPRSTIYDYWGQGTQVTVSS | high polyreactivity
3 | QVQLVESGGGLVQAGGSLRLSCAASGRTFFDHALGWYRPAPGKERELVAAITSVGSTYYADSVKGRFTISRDNAKNTVYLQMNSLKPEDTAVYYCAAHRHIHYTDARMDYWGQGTQVTVSS | low polyreactivity
4 | QVQLVESGGGLVQAGGSLRLSCAASGRTFFDYTMGWYRQAPGNERELDAAITGGDGSTYYADSVKGRFTISRDNAKNTVYLEMTSLKPEDTAVYYCAAEYTRTYWYAAMDYWGQGTQVTVSS | low polyreactivity
5 | QVQLVESGGGLVQAGGSLRLSCAASGRTFFFNAMGWYRQAPGKERELVARISSSGRTNYADSVKGRFTISRDNAKNTVYLQMNSLKPEDTAVYYCAAGRYGLYKSDRSPEYGYWGQGTQVTVSS | high polyreactivity
6 | QVQLVESGGGLVQAGGSLRLSCAASGRTFFFYAMGWYRQAPGKERELVADITWSDGTTYYAESVKGRFTISRDNAKNTVYLQMNSLKPEDTAVYYCAKVRTGQSRSVGYDYWGQGTQVTVSS | low polyreactivity
7 | QVQLVESGGGLVQAGGSLRLSCAASGRTFFGYAMGWYRQAPGKERELVAAISSGGSTYYADSVKGRFTISRDNAKNTVYLQMNSLKPEDTAVYYCAARSFTTRRSVIRNYWGQGTQVTVSS | high polyreactivity
8 | QVQLVESGGGLVQAGGSLRLSCAASGRTFFGYARGWYRQAPGKEREFVARISWRGTSTTYADSVKGRFTISRDNAKNTVYLEMNSLKPEDTAVYYCAASPYGLRVYFTVGYWGQGTQVTVSS | high polyreactivity
9 | QVQLVESGGGLVQAGGSLRLSCAASGRTFFKNAMGWYRQAPGKERELVAAITSSGGTTYYADSVKGRFTISRDNAKNTVYLQMISLKPEDTAVYYCATRKYPIRYGYGYWGQGTQVTVSS | high polyreactivity
10 | QVQLVESGGGLVQAGGSLRLSCAASGRTFFKYAMGGYRQAPGKERELVAAITGRGDRTYYADSVKGRFTISRDNAKNTVYLQMNSLKPEDTAVYYCAAGAPAHHASFYYWGQGTQVTVSS | high polyreactivity
11 | QVQLVESGGGLVQAGGSLRLSCAASGRTFFKYAMGWYRQAPGKERELVAAITWGGDRTFYADSVKGRFTISRDNAKNTVYLQMNSMKADETAVYYCAAEVLPNVYVYQSARGFYYWGQGTQVTVSS | high polyreactivity
12 | QVQLVESGGGLVQAGGSLRLSCAASGRTFFPYAMGWYRPAPGKEREFVAAITKTDDSTYYADSVKGRFTISRDNAKNTVYLQMNSLKPEDTAVYYCNAGDTQIRFYYWGQGTQVTVSS | low polyreactivity
13 | QVQLVESGGGLVQAGGSLRLSCAASGRTFFPYAMGWYRQAAGKERELVDAISLDDDTTYYADSVKGRFTISRDTAQNTVYLQMNSLKPEDTAVYYCATDGIVIYGGYYTGYDYWGQGTQVTVSS | high polyreactivity
14 | QVQLVESGGGLVQAGGSLRLSCAASGRTFFPYVMGWYRQAPGKERELVATITWGGVSTYYADSVKGRFTISRDNAKNTVYLQMNSLKPEDTAVYYCAARYYRWRTIPEYYYWGQGTQVTVSS | high polyreactivity
15 | QVQLVESGGGLVQAGGSLRLSCAASGRTFFRYAMGWYRQAPGKERELVAAISSRGGSTYYADSVKGRFTISRDNAKNTVYLQMNSLKPEDTAVYYCNADAFINFILYDYWGQGTQVTVSS | high polyreactivity
16 | QVQLVESGGGLVQAGGSLRLSCAASGRTFFTNAMGWSRQAPGKERELVATISQSGGSTYYADSVKGRFTISRDNAKNTVYLQMNCLKPEDTAVYYCAALSRYWVVRMDYWGQGTHVTVSS | high polyreactivity
17 | QVQLVESGGGLVQAGGSLRLSCAASGRTFFTYAMGWYRQAPGKERELVAAITWSGGSTYYADSVKGRFTISRDNAKNTVYLQMNSLKPEDTAVYYCAADGSVAYYSAFGSVQIWYYYWGQGTQVTVSS | low polyreactivity
18 | QVQLVESGGGLVQAGGSLRLSCAASGRTFFVYAMGWYRQAPVKERELVAAISNTGGRTYYADSVKGRFTISRDNAKNTVYLQMNSLKPEDTAVYYCAAPYSGPYRSYEYYWGQGTQVTVSS | low polyreactivity
19 | QVQLVESGGGLVQAGGSLRLSCAASGRTFFVYTMGWYRQAPGKERELVAAITSDTSTTYADSVKGRFTISRDNAKNTVYLQMNSLKPEDTAVYYCAAEGYVGYYDYDYWGQGTQVTVSS | low polyreactivity
20 | QVQLVESGGGLVQAGGSLRLSCAASGRTFFWNAMGWYRQAPGKERELVATISRSGGSTYYADSVKGRFTISRDNAKNTVYLQMNSLKPEDTAVYYCAAQYVRRSRKYDYWGQGTQVTVSS | high polyreactivity
21 | QVQLVESGGGLVQAGGSLRLSCAASGRTFFWYAMGWYRQAPGKERELVADISSSGGSTYYADSVKGRFTISRDNAKNTVYLQMNSLKPEDTAVYYCAALSPWWRGGYNYWGQGTQVTVSS | high polyreactivity
22 | QVQLVESGGGLVQAGGSLRLSCAASGRTFFYNAMGWYRQAPGKERELVARITQSGVITYYADSVKGRFTISRDNAKNTVYLQMNSLKPEDTAVYYCNADDTYSPFRGVSYDYWGQGTQVTVSS | low polyreactivity

Row | Sequence | polyreactivity (PSR sort gate)
23 | QVQLVESGGGLVQAGGSLRLSCAASGRTFFYYAMGWYRQAPGKDRELVAAISWGGGRTYYADSVKGRFTISRDNAKNTVYLQMNSLKPEETAVYYCAAGVYTGQHEYDYWGQGTQVTVSS | low polyreactivity
24 | QVQLVESGGGLVQAGGSLRLSCAASGRTFFYYAMGWYRQAPGKERELVAGITSTGSSTYYADSVKGRFTISRDNAKNTLYLQMNSLKPEDTAVYYCAADRYTTYSGQWSYPYDYWGQGTQVTVSS | low polyreactivity
25 | QVQLVESGGGLVQAGGSLRLSCAASGRTFFYYKMGLSRQAPGKESELVATISWRGGSTYYADSVKGRFTISRDNAKNTVYLHINSLNPEDTSVFYCAARYRSRFDSWGQGSQVTVSS | high polyreactivity
26 | QVQLVESGGGLVQAGGSLRLSCAASGRTFGENTMGWYRQAPGKERELVASITWSGDSTFYADSVKGRFTISRDNAKNTVYLQMNSLKPEDTAVYYCARDDYYGSYGYDYWGQGTQVTVSS | low polyreactivity
27 | QVQLVESGGGLVQAGGSLRLSCAASGRTFGFNVMGWYRQAPGKEREFVAAITRSGGSTYYADSVKGRFTISRDNAKNTVYLQMNSLKPEDTAVYYCAAYKFSARYYYWGQGTQVTVSS | high polyreactivity
28 | QVQLVESGGGLVQAGGSLRLSCAASGRTFGFYAMGWYRQAPGKERELVATITYRGSGGSTYYADSVKGRFTISRDNAKNTVYLQMNSLKPEDTAVYYCAADKRYSRYFSFDYWGQGTQVTVSS | high polyreactivity
29 | QVQLVESGGGLVQAGGSLRLSCAASGRTFGGNAMGWYRQAPGKERELVAAISSGGSTNYADSVKGRFTISRDYAKNTVYLQMNSLKPEDSAVYYCAAGWYWWARYDYWGQGTQVTVSS | low polyreactivity
30 | QVQLVESGGGLVQAGGSLRLSCAASGRTFGGNAMGWYRQAPGKERELVAAITVSAGHTYYADSVKGRFTISRDNAKNTVYLQMNSLKPEDTAVYYCAAGVPYYWSYVWKHPRYDHWGQGTQVTVSS | low polyreactivity
31 | QVQLVESGGGLVQAGGSLRLSCAASGRTFGGNVMAWYRHAPGKERELVAAITWSGGSTYYADSVKGRFTISRDNAKNTVYVQMNSLKPEDTAVYYCNALWVWYRGSSVRWVGGYDYWGQGTQVTVSS | high polyreactivity
32 | QVQLVESGGGLVQAGGSLRLSCAASGRTFGGYAMGWYRQAPGKERELVAAINYSGGTTYYADSVKGRFTISRDNAKNTVYLQMNSLKPEDTAVYYCAASDCYGLFYGGPTWWKGHDYWGQGTQVTVSS | high polyreactivity
33 | QVQLVESGGGLVQAGGSLRLSCAASGRTFGGYAMGWYRQAPGKERELVATISYSSGSTYYADSVKGRFTISRDNAKNTVYLQLNSLKTEDTAVYYCAAEYRSRSWRMDYWGQGTQVTVSS | high polyreactivity
34 | QVQLVESGGGLVQAGGSLRLSCAASGRTFGGYTIGWSRQAPGKERELVAAIRWSGGRTYYADSVKGRFTISRDNAKNTVYLQMNSLKPEDTAVYYCNARYVFPYYWGQGTQVTVSS | high polyreactivity
35 | QVQLVESGGGLVQAGGSLRLSCAASGRTFGHYAMGWYRQAPGKERELVAAITWTGGRTYYADSVKGRFTISRDNAKNTVYLQMNSLNPEVTAVYYCNTDRSFYYPAEYDYDYWGQGTQVTVSS | low polyreactivity
36 | QVQLVESGGGLVQAGGSLRLSCAASGRTFGHYAMGWYRQAPGKERELVATITGGGTTNYADSVKGRFTISRDNAKNTVYLQMNRLKPEDTAVYYCNAAWRYYWLGLRRNGYWGQGTQVTVSS | high polyreactivity
37 | QVQLVESGGGLVQAGGSLRLSCAASGRTFGIKAMGWYRQAPGKERELVATITTGTSTNYAVSVKGRFTISRDNAKNTVYLQMNSLKPEDTAVYYCAARDWYGWEFDYWGQGTQVTVSA | low polyreactivity
38 | QVQLVESGGGLVQAGGSLRLSCAASGRTFGIYALGWYRQAPGKERELVAAITGRGGSTHYADSVKGRFTISRDNAKNTVYLQMNSLKPEDTAVYYCNAEGVYYDYKYGYYGYDYWGQGTQVTVSS | low polyreactivity
39 | QVQLVESGGGLVQAGGSLRLSCAASGRTFGIYVMGWYRQAPGKERELVAAIRGGGTTYYADSVKGRFTISRDNANNTVYLQMNSLKPEDTAVYYCAAESRYQRYDYWGQGTQVTVSS | high polyreactivity
40 | QVQLVESGGGLVQAGGSLRLSCAASGRTFGKNAMGWYRQAPGKEREFVAAITSRGGSTYYADSVKGRFTISRDNAKNTDYLQMNRLKPEDTAVYYCNREFKRQSQRTEHYYWGQGTQVTVSS | low polyreactivity
41 | QVQLVESGGGLVQAGGSLRLSCAASGRTFGKNAMGWYRQAPGKEREFVAAITSRGGSTYYADSVKGRFTISRDNAKNTVYLQMNSLKPEDTAVYYCNREYKRPSQRTEHYYWGQGTQVTVSS | low polyreactivity
42 | QVQLVESGGGLVQAGGSLRLSCAASGRTFGKYAMGWYRQAPGKERELVAAITGDGGSTYYADSVKGRFTISRDNAKNTVYLQMNSLKPEDTAVYYCNADPQRRNYDYWGQGTQVTVSS | high polyreactivity
43 | QVQLVESGGGLVQAGGSLRLSCAASGRTFGLYAMGWYRQAPGKERELVAAMSYSGGSTYYADSVQGRFTISRDNAKNTVYLQMNSLKPEDTAVYYCAAVYYYASRTSKQPYYDWGQGTQVTVSS | high polyreactivity
